Experimental data from paper PMC7402283, “Characterizing the Fused TvG6PD::6PGL Protein from the Protozoan Trichomonas vaginalis, and Effects of the NADP^+ Molecule on Enzyme Stability” (International Journal of Molecular Sciences, 2020).

Legend:
[1] = molecular target: T1, TvG6PD::6PGL (Trichomonas vaginalis, UniProt A2EC78); assay: intrinsic tryptophan fluorescence quenching titration, excitation […] nm; type: binding
T1 construct: gene TVAG_414060; full-length fused protein, 716 aa, G6PD N-terminal (1-483) and 6PGL C-terminal, 81,692 Da; pET3a-HisTEV, N-terminal His6 tag removed by TEV protease; E. coli BL21(DE3) zwf-deleted; native tetramer
T1 sequence (A2EC78 1-716): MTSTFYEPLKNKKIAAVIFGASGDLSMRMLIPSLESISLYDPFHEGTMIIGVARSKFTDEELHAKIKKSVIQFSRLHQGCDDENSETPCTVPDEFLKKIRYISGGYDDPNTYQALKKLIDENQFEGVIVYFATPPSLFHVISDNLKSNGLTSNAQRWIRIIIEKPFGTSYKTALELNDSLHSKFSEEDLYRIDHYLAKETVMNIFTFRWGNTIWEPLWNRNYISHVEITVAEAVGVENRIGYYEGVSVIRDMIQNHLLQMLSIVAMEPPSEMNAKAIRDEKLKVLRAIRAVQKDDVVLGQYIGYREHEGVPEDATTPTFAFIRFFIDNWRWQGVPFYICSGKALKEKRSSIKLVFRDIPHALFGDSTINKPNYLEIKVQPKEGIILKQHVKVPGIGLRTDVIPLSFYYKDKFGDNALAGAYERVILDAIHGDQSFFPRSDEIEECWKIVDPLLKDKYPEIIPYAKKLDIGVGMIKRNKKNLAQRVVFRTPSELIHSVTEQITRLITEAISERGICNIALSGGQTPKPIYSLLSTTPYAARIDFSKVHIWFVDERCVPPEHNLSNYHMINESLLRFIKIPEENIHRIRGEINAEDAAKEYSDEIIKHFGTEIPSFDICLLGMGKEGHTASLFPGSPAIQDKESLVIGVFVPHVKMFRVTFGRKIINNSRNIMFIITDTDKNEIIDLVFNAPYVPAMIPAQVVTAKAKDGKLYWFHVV

[2] = molecular target: fused glucose-6-phosphate dehydrogenase-phosphogluconolactonase protein from Trichomonas vaginalis (TvG6PD::6PGL) (Trichomonas vaginalis); assay: SEC; Sephacryl 400 (16/60) gel filtration column, 50 mM phosphate buffer pH 7.35, flow 0.3 mL/min, calibrated with Bio-Rad gel filtration standards; single peak at 59.9 mL; no monomer, dimer or larger aggregates seen
[3] = substrate: O=P(O)(O)OC[C@H]1OC(O)[C@H](O)[C@@H](O)[C@@H]1O; assay: purified protein; type: biochemical, Trichomonas vaginalis; settings: NADP+ fixed at 150 uM, pH 8.0, apparent Km
[4] = substrate: NC(=O)c1ccc[n+]([C@@H]2O[C@H](COP(=O)(O)OP(=O)(O)OC[C@H]3O[C@@H](n4cnc5c(N)ncnc54)[C@H](OP(=O)(O)O)[C@@H]3O)[C@@H](O)[C@H]2O)c1; assay: purified protein; type: biochemical, Trichomonas vaginalis; settings: G6P fixed at 1 mM, pH 8.0, apparent Km, catalytic site

In the case of `NC(=O)c1ccc[n+]([C@@H]2O[C@H](COP(=O)(O)OP(=O)(O)OC[C@H]3O[C@@H](n4cnc5c(N)ncnc54)[C@H](OP(=O)(O)O)[C@@H]3O)[C@@H](O)[C@H]2O)c1` [NADP^+], the Kd [1] is reported as 31 nM.

Molecule “fused glucose-6-phosphate dehydrogenase-phosphogluconolactonase protein from Trichomonas vaginalis (TvG6PD::6PGL) (enzyme)” has a stoichiometry N [2] of 4.

B1: TvG6PD::6PGL (Trichomonas vaginalis G3) (protein)
chain: MTSTFYEPLKNKKIAAVIFGASGDLSMRMLIPSLESISLYDPFHEGTMIIGVARSKFTDEELHAKIKKSVIQFSRLHQGCDDENSETPCTVPDEFLKKIRYISGGYDDPNTYQALKKLIDENQFEGVIVYFATPPSLFHVISDNLKSNGLTSNAQRWIRIIIEKPFGTSYKTALELNDSLHSKFSEEDLYRIDHYLAKETVMNIFTFRWGNTIWEPLWNRNYISHVEITVAEAVGVENRIGYYEGVSVIRDMIQNHLLQMLSIVAMEPPSEMNAKAIRDEKLKVLRAIRAVQKDDVVLGQYIGYREHEGVPEDATTPTFAFIRFFIDNWRWQGVPFYICSGKALKEKRSSIKLVFRDIPHALFGDSTINKPNYLEIKVQPKEGIILKQHVKVPGIGLRTDVIPLSFYYKDKFGDNALAGAYERVILDAIHGDQSFFPRSDEIEECWKIVDPLLKDKYPEIIPYAKKLDIGVGMIKRNKKNLAQRVVFRTPSELIHSVTEQITRLITEAISERGICNIALSGGQTPKPIYSLLSTTPYAARIDFSKVHIWFVDERCVPPEHNLSNYHMINESLLRFIKIPEENIHRIRGEINAEDAAKEYSDEIIKHFGTEIPSFDICLLGMGKEGHTASLFPGSPAIQDKESLVIGVFVPHVKMFRVTFGRKIINNSRNIMFIITDTDKNEIIDLVFNAPYVPAMIPAQVVTAKAKDGKLYWFHVV
notes: full-length fused protein, 716 aa, G6PD N-terminal (1-483) and 6PGL C-terminal, 81,692 Da; pET3a-HisTEV, N-terminal His6 tag removed by TEV protease; E. coli BL21(DE3) zwf-deleted; native tetramer
For B1, the Km [3] was 210 µM, the kcat [3] was 147 s⁻¹ and the Km [4] was 27 µM. For the same molecule, the kcat [4] was 147 s⁻¹.
